In article PMC10119233 (2022):

Target: Recombinant Fc-tagged hDLL4 (human, UniProt Q9NR61 27-529)
Assay: SPR

Sequence of Recombinant Fc-tagged hDLL4 (Q9NR61 27-529): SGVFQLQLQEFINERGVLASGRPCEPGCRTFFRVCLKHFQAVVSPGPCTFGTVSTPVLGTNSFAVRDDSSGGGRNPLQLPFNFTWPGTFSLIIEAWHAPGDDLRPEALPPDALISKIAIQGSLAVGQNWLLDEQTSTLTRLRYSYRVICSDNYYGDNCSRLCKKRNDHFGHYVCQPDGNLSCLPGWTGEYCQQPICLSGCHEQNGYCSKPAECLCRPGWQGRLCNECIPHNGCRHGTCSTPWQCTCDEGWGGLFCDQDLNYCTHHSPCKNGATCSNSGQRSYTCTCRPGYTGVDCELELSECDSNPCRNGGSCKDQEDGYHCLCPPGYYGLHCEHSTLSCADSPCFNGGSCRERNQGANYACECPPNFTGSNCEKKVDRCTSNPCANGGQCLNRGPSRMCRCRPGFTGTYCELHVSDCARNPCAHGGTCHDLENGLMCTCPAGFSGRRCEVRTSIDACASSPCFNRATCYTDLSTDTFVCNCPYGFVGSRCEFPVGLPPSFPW

koff: 0.0099 s⁻¹
B1: N4_(10-14)Fc, Notch4 EGF-like repeats 10–14 fused to human IgG Fc (Fc fusion)
chain: RGLLCGSFPEPCANGGTCLSLSLGQGTCQCAPGFLGETCQFPDPCQNAQLCQNGGSCQALLPAPLGLPSSPSPLTPSFLCTCLPGFTGERCQAKLEDPCPPSFCSKRGRCHIQASGRPQCSCMPGWTGEQCQLRDFCSANPCVNGGVCLATYPQIQCHCPPGFEGHACERDVNECFQDPGPCPKGTSCHNTLGSFQCLCPVGQEGPRCELRAGPCPPRGCSNGGTCQLMPEKDSTFHLCLCPPGFIGPDCEVNPDNCVSHQCQNGGTCQDGLDTYTCLCPETWTGWDCSEDVDECETQGPPHCRNGGTCQNSAGSFHCVCVSGWGGTSCEENLDDCIAATCAPGSTCIDRVGSFSCLCPPGRTGLLCHLEDMCLSQPCHGDAQCSTNPLTGSTLCLCQPGYSGPTCHQDLDECLMAQQGPSPCEHGGSCLNTPGSFNCLCPPGYTGSRCEADHNECLSQPCHPGSTCLDLLATFHCLCPPGLEGQLCEVETNECASAPCLNHADCHDLLNGFQCICLPGFSGTRCEEDIDECRSSPCANGGQCQDQPGAFHCKCLPGFEGPRCQTEVDECLSDPCPVGASCLDLPGAFFCLCPSGFTGQLCEVPLCAPNLCQPKQICKDQKDKANCLCPDGSPGCAPPEDNCTCHHGHCQRSSCVCDVGWTGPECEAELGGCISAPCAHGGTCYPQPSGYNCTCPTGYTGPTCSEEMTACHSGPCLNGGSCNPSPGGYYCTCPPSHTGPQCQTSTDYCVSAPCFNGGTCVNRPGTFSCLCAMGFQGPRCEGKLRPSCADSPCRNRATCQDSPQGPRCLCPTGYTGGSCQTLMDLCAQKPCPRNSHCLQTGPSFHCLCLQGWTGPLCNLPLSSCQKAALSQGIDVSSLCHNGGLCVDSGPSYFCHCPPGFQGSLCQDHVNPCESRPCQNGATCMAQPSGYLCQCAPGYDGQNCSKELDACQSQPCHNHGTCTPKPGGFHCACPPGFVGLRCEGDVDECLDQPCHPTGTAACHSLANAFYCQCLPGHTGQWCEVEIDPCHSQPCFHGGTCEATAGSPLGFICHCPKGFEGPTCSHRAPSCGFHHCHHGGLCLPSPKPGFPPRCACLSGYGGPDCLTPPAPKGCGPPSPCLYNGSCSETTGLGGPGFRCSCPHSSPGPRCQKPGAKGCEGRSGDGACDAGCSGPGGNWDGGDCSLGVPDPWKGCPSHSRCWLLFRDGQCHPQCDSEECLFDGYDCETPPACTPAYDQYCHDHFHNGHCEKGCNTAECGWDGGDCRPEDGDPEWGPSLALLVVLSPPALDQQLFALARVLSLTLRVGLWVRKDRDGRDMVYPYPGARAEEKLGGTRDPTYQERAAPQTQPLGKETDSLSAGFVVVMGVDLSRCGPDHPASRCPWDPGLLLRFLAAMAAVGALEPLLPGPLLAVHPHAGTAPPANQLPWPVLCSPVAGVILLALGALLVLQLIRRRRREHGALWLPPGFTRRPRTQSAPHRRRPPLGEDSIGLKALKPKAEVDEDGVVMCSGPEEGEEVGQAEETGPPSTCQLWSLSGGCGALPQAAMLTPPQESEMEAPDLDTRGPDGVTPLMSAVCCGEVQSGTFQGAWLGCPEPWEPLLDGGACPQAHTVGTGETPLHLAARFSRPTAARRLLEAGANPNQPDRAGRTPLHAAVAADAREVCQLLLRSRQTAVDARTEDGTTPLMLAARLAVEDLVEELIAAQADVGARDKWGKTALHWAAAVNNARAARSLLQAGADKDAQDNREQTPLFLAAREGAVEVAQLLLGLGAARELRDQAGLAPADVAHQRNHWDLLTLLEGAGPPEARHKATPGREAGPFPRARTVSVSVPPHGGGALPRCRTLSAGAGPRGGGACLQARTWSVDLAARGGGAYSHCRSLSGVGAGGGPTPRGRRFSAGMRGPRPNPAIMRGRYGVAAGRGGRVSTDDWPCDWVALGACGSASNIPIPPPCLTPSPERGSPQLDCGPPALQEMPINQGGEGKK
